Measurements published in paper PMC4212957, “The serodominant secreted effector protein of Salmonella, SseB, is a strong CD4 antigen containing an immunodominant epitope presented by diverse HLA class II alleles” (Immunology, 2014).

Legend:
HLA-DRB1*03:01 = target: T1, HLA-DRB1*03:01 (Homo sapiens, UniProt P01903+P01911, A100K/A102G/A103R/A169T/F55Y/I96L/K41T/L162R/M171V/P40S/Q125H/Q178H/Q39Y/R42S/S66N/T106N/T262R/W38E/Y61H); assay: Peptide/HLA-DR binding, competitive ELISA; conditions: ratio IC50 of peptide / IC50 of reference peptide MT2-16, lower = higher affinity, ratio 20 or less high, 20–100 moderate, three independent experiments
T1 construct: HLA-DR heterodimers were purified from homozygous Epstein–Barr virus B-lymphoblastoid cell lines; host or cells: homozygous EBV B-lymphoblastoid cell line
Procedure: (§1) HLA-DR heterodimers were purified from homozygous Epstein–Barr virus B-lymphoblastoid cell lines (HPA Culture Collections, Salisbury, UK) by affinity chromatography with the monomorphic HLA-DRα monoclonal antibody, L243.[29],[30] Binding of the SseB peptide panel to the HLA-DR molecules HLA-DRB1*01:01, 03:01, 04:01, 07:01, 09:01, 11:01, 12:02, 15:01, 15:02 was assessed by competitive ELISA, as previously described, using an automated workstation.[29],[30] We evaluated the peptide concentration able to prevent binding of 50% of the labelled peptide (IC50). Data were expressed as relative affinity: ratio of the IC50 of the peptide to the IC50 of the reference peptide, which is a high binder to the HLA class II molecule. Unlabelled forms of the biotinylated peptides were used as reference peptides.

HLA-DRB1*09:01 = target: T2, HLA-DRB1*09:01 (Homo sapiens, UniProt P01903+P01911, A100R/A103E/D57H/D86V/F55Y/F60I/F76Y/I96F/K127E/L162R/M171V/P40D/Q125H/Q99R/R33Q/R42F/S133A/S66N/T210M/V115G/W38K/Y107V/Y59G/Y89S); assay: Peptide/HLA-DR binding, competitive ELISA; conditions: ratio IC50 of peptide / IC50 of reference peptide CTP 427–441, lower = higher affinity, ratio 20 or less high, 20–100 moderate, three independent experiments
T2 construct: HLA-DR heterodimers were purified from homozygous Epstein–Barr virus B-lymphoblastoid cell lines; host or cells: homozygous EBV B-lymphoblastoid cell line
Procedure: as §1

HLA-DRB1*12:02 = HLA-DRB1*12:02 (Homo sapiens, UniProt P01903+P01911, A100R/A169T/D57E/D86V/F55L/H45Y/I96F/K41T/L162R/M171V/P40S/Q125H/Q178H/Q39Y/Q99D/R42G/S66L/T262R/V114A/V67L/W38E/Y59H/Y61H/Y89S); assay: Peptide/HLA-DR binding, competitive ELISA; conditions: ratio IC50 of peptide / IC50 of reference peptide TFR 141–155, lower = higher affinity, ratio 20 or less high, 20–100 moderate, three independent experiments
Procedure: as §1

HLA-DRB1*15:01 = target: T3, HLA-DRB1*15:01 (Homo sapiens, UniProt P01903+P01911); assay: Peptide/HLA-DR binding, competitive ELISA; conditions: for Relative binding affinity of peptide to HLA-DR molecules DRB1*1501: ratio IC50 of peptide / IC50 of reference peptide A3 152–166, lower = higher affinity, ratio 20 or less high, 20–100 moderate, three independent experiments
T3 construct: HLA-DR heterodimers were purified from homozygous Epstein–Barr virus B-lymphoblastoid cell lines; host or cells: homozygous EBV B-lymphoblastoid cell line
Procedure: as §1

HLA-DRB1*15:02 = target: T4, HLA-DRB1*15:02 (Homo sapiens, UniProt P01903+P01911, V115G); assay: Peptide/HLA-DR binding, competitive ELISA; conditions: ratio IC50 of peptide / IC50 of reference peptide TFR 607–620, lower = higher affinity, ratio 20 or less high, 20–100 moderate, three independent experiments
T4 construct: HLA-DR heterodimers were purified from homozygous Epstein–Barr virus B-lymphoblastoid cell lines; host or cells: homozygous EBV B-lymphoblastoid cell line
Procedure: as §1

HLA-DRB1*01:01 = HLA-DRB1*01:01 (Homo sapiens, UniProt P01903+P01911, A100R/D57E/F55L/F60I/F76Y/I96L/L162R/M171V/P40L/Q125E/R42F/V115G/Y59C); conditions: competitive ELISA; ratio IC50 of peptide / IC50 of reference peptide HA 306–318; lower = higher affinity; ratio 20 or less high, 20–100 moderate; three independent experiments
HLA-DRB1*04:01 = HLA-DRB1*04:01 (Homo sapiens, UniProt P01903+P01911, A100K/A169T/F76Y/I96L/K127E/L162R/M171V/N62H/P40V/Q125Y/R42H/S133A/S149N/S66Y/V115G/V209L/W38E); conditions: competitive ELISA; ratio IC50 of peptide / IC50 of reference peptide HA 306–318; lower = higher affinity; ratio 20 or less high, 20–100 moderate; three independent experiments
HLA-DRB1*07:01 = HLA-DRB1*07:01 (Homo sapiens, UniProt P01903+P01911, A100R/A102G/A103Q/D57E/D86V/E43K/F76Y/K127E/L162R/M171V/P40G/Q125H/Q99D/R33Q/R42Y/R54Q/S133A/S66F/T210M/V115G/Y107V/Y59L/Y89S); conditions: competitive ELISA; ratio IC50 of peptide / IC50 of reference peptide HA 306–318; lower = higher affinity; ratio 20 or less high, 20–100 moderate; three independent experiments
HLA-DRB1*11:01 = HLA-DRB1*11:01 (Homo sapiens, UniProt P01903+P01911, A100R/A169T/A87E/I96F/K41T/L162R/M171V/P40S/Q125H/Q178H/Q39Y/Q99D/R42S/S66Y/T262R/V115G/W38E); conditions: competitive ELISA; ratio IC50 of peptide / IC50 of reference peptide HA 306–318; lower = higher affinity; ratio 20 or less high, 20–100 moderate; three independent experiments

12: SseB overlapping library peptide, residues 111–130 (GILIDGMTIDDYMAKYGDHG) [Peptide 12]
Relative binding affinity of peptide to HLA-DR molecules DRB1*0301 (HLA-DRB1*03:01): 18
Relative binding affinity of peptide to HLA-DR molecules DRB1*0901 (HLA-DRB1*09:01): > 689
Relative binding affinity of peptide to HLA-DR molecules DRB1*1202 (HLA-DRB1*12:02): 105
Relative binding affinity of peptide to HLA-DR molecules DRB1*1501 (HLA-DRB1*15:01): 12
Relative binding affinity of peptide to HLA-DR molecules DRB1*1502 (HLA-DRB1*15:02): 1 826
Relative binding affinity of peptide to HLA-DR molecules DRB1*0101 (HLA-DRB1*01:01): > 4149
Relative binding affinity of peptide to HLA-DR molecules DRB1*0401 (HLA-DRB1*04:01): > 145
Relative binding affinity of peptide to HLA-DR molecules DRB1*0701 (HLA-DRB1*07:01): 167
Relative binding affinity of peptide to HLA-DR molecules DRB1*1101 (HLA-DRB1*11:01): > 278

CC(C)C[C@H](NC(=O)[C@H](Cc1ccc(O)cc1)NC(=O)[C@H](C)NC(=O)[C@H](CCCNC(=N)N)NC(=O)[C@H](CC(C)C)NC(=O)[C@H](CCC(N)=O)NC(=O)[C@H](CCC(=O)O)NC(=O)[C@H](C)NC(=O)[C@@H](N)CCC(=O)O)C(=O)N[C@@H](CC(=O)O)C(=O)NCC(=O)N[C@H](C(=O)NCC(=O)N[C@H](C(=O)N[C@@H](CCC(=O)O)C(=O)O)C(C)C)[C@@H](C)O [A3 152–166, reference compound]
IC50 (HLA-DRB1*15:01; DRB1*15:01, unlabelled form of the biotinylated peptide, read-out: IC50 of reference peptide): 37 nM

15: SseB overlapping library peptide, residues 141–160 (KAALDNDANRNTDLMSQGQI) [Peptide 15]
Relative binding affinity of peptide to HLA-DR molecules DRB1*0301 (HLA-DRB1*03:01): 57
Relative binding affinity of peptide to HLA-DR molecules DRB1*0901 (HLA-DRB1*09:01): > 689
Relative binding affinity of peptide to HLA-DR molecules DRB1*1202 (HLA-DRB1*12:02): > 136
Relative binding affinity of peptide to HLA-DR molecules DRB1*1501 (HLA-DRB1*15:01): > 270
Relative binding affinity of peptide to HLA-DR molecules DRB1*1502 (HLA-DRB1*15:02): > 3 333
Relative binding affinity of peptide to HLA-DR molecules DRB1*0101 (HLA-DRB1*01:01): > 4149
Relative binding affinity of peptide to HLA-DR molecules DRB1*0401 (HLA-DRB1*04:01): > 145
Relative binding affinity of peptide to HLA-DR molecules DRB1*0701 (HLA-DRB1*07:01): > 336
Relative binding affinity of peptide to HLA-DR molecules DRB1*1101 (HLA-DRB1*11:01): > 278

9: SseB overlapping library peptide, residues 81–100 (MDEVIAKAAKGDAKTKEEVP) [Peptide 9]
Relative binding affinity of peptide to HLA-DR molecules DRB1*0301 (HLA-DRB1*03:01): 41
Relative binding affinity of peptide to HLA-DR molecules DRB1*0901 (HLA-DRB1*09:01): 626
Relative binding affinity of peptide to HLA-DR molecules DRB1*1202 (HLA-DRB1*12:02): > 136
Relative binding affinity of peptide to HLA-DR molecules DRB1*1501 (HLA-DRB1*15:01): 200
Relative binding affinity of peptide to HLA-DR molecules DRB1*1502 (HLA-DRB1*15:02): > 3 333
Relative binding affinity of peptide to HLA-DR molecules DRB1*0101 (HLA-DRB1*01:01): 1508
Relative binding affinity of peptide to HLA-DR molecules DRB1*0401 (HLA-DRB1*04:01): > 145
Relative binding affinity of peptide to HLA-DR molecules DRB1*0701 (HLA-DRB1*07:01): > 336
Relative binding affinity of peptide to HLA-DR molecules DRB1*1101 (HLA-DRB1*11:01): 8

5: SseB overlapping library peptide, residues 41–60 (EGYGVLLILLMVIQAIANNK) [Peptide 5]
Relative binding affinity of peptide to HLA-DR molecules DRB1*0301 (HLA-DRB1*03:01): > 119
Relative binding affinity of peptide to HLA-DR molecules DRB1*0901 (HLA-DRB1*09:01): > 689
Relative binding affinity of peptide to HLA-DR molecules DRB1*1202 (HLA-DRB1*12:02): > 136
Relative binding affinity of peptide to HLA-DR molecules DRB1*1501 (HLA-DRB1*15:01): > 270
Relative binding affinity of peptide to HLA-DR molecules DRB1*1502 (HLA-DRB1*15:02): > 3 333
Relative binding affinity of peptide to HLA-DR molecules DRB1*0101 (HLA-DRB1*01:01): > 4149
Relative binding affinity of peptide to HLA-DR molecules DRB1*0401 (HLA-DRB1*04:01): > 145
Relative binding affinity of peptide to HLA-DR molecules DRB1*0701 (HLA-DRB1*07:01): > 336
Relative binding affinity of peptide to HLA-DR molecules DRB1*1101 (HLA-DRB1*11:01): > 278
